Patent US20250354164A1

Target: Cas9 protein fused to 10 tandem copies of GCN4 peptide separated by linkers (SunTag) (Streptococcus pyogenes) (UniProt Q99ZW2)
Assay: cell-based or functional assay

UniProt Q99ZW2, sequence (Q99ZW2 whole entry, the tested form may be a part): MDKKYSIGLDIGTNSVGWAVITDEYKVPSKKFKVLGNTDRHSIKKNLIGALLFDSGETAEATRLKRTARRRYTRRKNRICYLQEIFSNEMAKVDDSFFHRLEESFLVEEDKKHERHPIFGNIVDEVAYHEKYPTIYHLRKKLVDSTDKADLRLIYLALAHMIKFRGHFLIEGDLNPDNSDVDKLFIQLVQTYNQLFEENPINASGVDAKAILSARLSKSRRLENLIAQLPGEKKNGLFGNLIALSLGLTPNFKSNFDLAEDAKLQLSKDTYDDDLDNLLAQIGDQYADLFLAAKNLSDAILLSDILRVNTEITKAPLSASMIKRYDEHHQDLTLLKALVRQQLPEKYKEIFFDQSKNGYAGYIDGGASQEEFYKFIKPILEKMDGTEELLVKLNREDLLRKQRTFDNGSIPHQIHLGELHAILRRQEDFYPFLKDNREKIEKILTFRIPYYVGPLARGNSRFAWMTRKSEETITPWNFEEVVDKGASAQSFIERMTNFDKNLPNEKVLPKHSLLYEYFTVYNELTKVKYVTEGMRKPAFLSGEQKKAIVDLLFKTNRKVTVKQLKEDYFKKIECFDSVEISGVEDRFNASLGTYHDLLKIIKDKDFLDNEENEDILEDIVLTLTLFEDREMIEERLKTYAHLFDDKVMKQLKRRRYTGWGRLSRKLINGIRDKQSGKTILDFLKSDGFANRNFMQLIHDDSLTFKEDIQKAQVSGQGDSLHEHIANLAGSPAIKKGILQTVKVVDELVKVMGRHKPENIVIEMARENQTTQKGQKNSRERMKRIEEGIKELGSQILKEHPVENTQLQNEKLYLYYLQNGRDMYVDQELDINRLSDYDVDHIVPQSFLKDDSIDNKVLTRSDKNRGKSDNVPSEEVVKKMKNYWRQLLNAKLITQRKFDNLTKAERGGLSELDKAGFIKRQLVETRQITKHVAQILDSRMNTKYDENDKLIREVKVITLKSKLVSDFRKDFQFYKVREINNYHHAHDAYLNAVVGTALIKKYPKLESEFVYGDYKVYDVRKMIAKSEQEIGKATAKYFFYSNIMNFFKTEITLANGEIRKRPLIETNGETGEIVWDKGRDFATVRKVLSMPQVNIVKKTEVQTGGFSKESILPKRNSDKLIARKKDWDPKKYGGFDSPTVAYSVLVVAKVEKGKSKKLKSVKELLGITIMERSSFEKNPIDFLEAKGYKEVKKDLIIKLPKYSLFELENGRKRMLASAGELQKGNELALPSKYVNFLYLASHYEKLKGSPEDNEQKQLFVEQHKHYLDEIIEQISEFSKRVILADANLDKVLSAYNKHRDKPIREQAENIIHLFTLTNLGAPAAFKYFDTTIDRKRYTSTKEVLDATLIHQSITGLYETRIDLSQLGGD

REDIT recombinator protein (SSAP RecT) fused to scFV antibody peptide (SunTag recruitment)
HRD efficiencies (mKate knock-in assay): 2 fold
